Measurements published in article PMC4778124, “A continuous sirtuin activity assay without any coupling to enzymatic or chemical reactions” (Scientific Reports, 2016).
Blank lines part the entries; values can stand above or below the binder they belong to. *: point of attachment. Myristoyl = CCCCCCCCCCCCCC(=O)*

Legend:
[1] = substrate: CCCCCCCCCCCCCC(=O)NCCCC[C@H](NC(=O)[C@H](CCCCN)NC(=O)[C@@H]1CCCN1C(=O)[C@H](CC(C)C)NC(=O)[C@H](C)NC(=O)[C@H](CCC(=O)O)NC(C)=O)C(=O)N[C@H](C(=O)NCC(=O)NCC(N)=O)[C@@H](C)O; test: HPLC based activity assay; format: biochemical, human; settings: other: HPLC; Sirt5 0.5 µM; pH 7.8; 37.0 °C
Experimental: (§1) For the determination of kinetic constants for all sirtuin mediated reactions solutions containing 20 mM TRIS/HCl pH 7.8, 150 mM NaCl, 5 mM MgCl2 (assay-buffer), 500 μM NAD^+ and varying substrate concentrations (0.5–100 μM) were used. Deacylation was started by adding human sirtuin to reach a final concentration of 0.01–0.5 μM. Enzyme-catalyzed reaction was stopped using TFA (1% final concentration) after 1 min to 180 min of incubation at 37 °C depending on substrate reactivity. The cleavage rate of the different TNFα peptide derivatives was analyzed using analytical reversed phase HPLC. 40 to 80 μl of compounds or reaction solutions were injected and separated using a linear gradient from 5% to 95% solvent B within 6min. The product and substrate peaks were quantified using absorbance at 220 nm or 365 nm (absorption of 3-Nitrotyrosyl moiety). The peak areas were integrated and converted to initial velocity rates calculated from the ratio of product area to total peak area. Linear regression of conversions plotted against time yielded reaction rates in μM/min (relative conversion below 20% of substrate). Non-linear regression according to Michaelis-Menten of the reaction rates at different substrate concentrations yielded KM- and kcat-values using the program SigmaPlot 8 (Systat Software, San Jose, USA). All measurements were done in duplicates.

[2] = substrate: CC(=O)N[C@@H](CCC(=O)O)C(=O)N[C@@H](C)C(=O)N[C@@H](CC(C)C)C(=O)N1CCC[C@H]1C(=O)N[C@@H](CCCCN)C(=O)N[C@@H](CCCCNC(=O)CCCCCCCCCCNC(=O)c1ccccc1N)C(=O)N[C@@H](Cc1ccc(O)c([N+](=O)[O-])c1)C(=O)NCC(=O)NCC(N)=O; test: Continuous fluorescence assay, substrate kinetics; format: biochemical, human; settings: other: FS (fluorescence spectrometer); Sirt3 0.1 µM; 37.0 °C
Experimental: The fluorescence measurements were performed on a Hitachi F-4500 fluorescence spectrophotometer (Tokyo, Japan) at λEx = 310 nm and λEm = 405 nm (slitEx = 5 nm, slitEm = 2.5 nm, PMT = 700 V for 3, 4 and 5 as well as slitEx = 10 nm, slitEm = 10 nm, PMT = 950 V for 4a). Each reaction mixture contained assay-buffer, 0.5 mM NAD^+ and various peptide concentrations (0.1–100 μM) and was preincubated for 5 minutes at 37 °C. The reaction was started by adding human sirtuin (0.1–0.5 μM) and observed for 5–10 minutes. Product formation could be monitored by increase of relative fluorescence. This signal was converted into product concentration via calibration lines. The slope of the linear regression of product formation against time yielded the reaction velocity rates in μM/s. KM and kcat were obtained by non-linear regression according to Michaelis-Menten. All measurements were done in duplicates. For determination of reaction velocity rates in μM/s calibration lines were necessary. […] The reaction mixture was analyzed with HPLC, to control if the entire peptide substrate was turned to product. Additionally the mixture was diluted (0.1–25 μM) and measured with Hitachi F-4500 fluorescence spectrophotometer at the same conditions as described above.
The microtiter plate fluorescence measurements were performed on a Tecan Infinite M200 microplate reader (Maennedorf, Switzerland) at λEx = 320 nm and λEm = 408 nm (lag time 9 μs, integration time […], gain 160, 170 or 182). The reactions (total volume 100 μl) were measured in black low-binding 96-well microtiter plates (NUNC). […] The signals were converted into product concentration via calibration lines and the resulting data were evaluated as described above (single fluorescence measurement). […] The reaction mixture for the calibration lines was prepared as described for the single fluorescence measurements. […] The resulting plots were analyzed by a competitive inhibition and non-competitive inhibition model using the program Sigma Plot 8. […] The negative Ki value can be determined as intersection with the X-axis from these plots.

[3] = substrate: CCCCCCCCCCCCCC(=O)NCCCC[C@H](NC(=O)[C@H](CCCCN)NC(=O)[C@@H]1CCCN1C(=O)[C@H](CC(C)C)NC(=O)[C@H](C)NC(=O)[C@H](CCC(=O)O)NC(C)=O)C(=O)N[C@H](C(=O)NCC(=O)NCC(N)=O)[C@@H](C)O; test: HPLC based activity assay; format: biochemical, human; settings: other: HPLC; Sirt3 0.1 µM; pH 7.8; 37.0 °C
Experimental: as §1
The reactions were performed with 0.1- 0.5 µM sirtuin, 500 µM NAD^+ and 50µM 13/16. All reactions were done in duplicates (n=2).

[4] = target: human sirtuin 6, His-tagged Sirt6 (1-355) (human) (UniProt Q8N6T7)
Chain of human sirtuin 6, His-tagged Sirt6 (1-355) (human) (Q8N6T7 whole entry): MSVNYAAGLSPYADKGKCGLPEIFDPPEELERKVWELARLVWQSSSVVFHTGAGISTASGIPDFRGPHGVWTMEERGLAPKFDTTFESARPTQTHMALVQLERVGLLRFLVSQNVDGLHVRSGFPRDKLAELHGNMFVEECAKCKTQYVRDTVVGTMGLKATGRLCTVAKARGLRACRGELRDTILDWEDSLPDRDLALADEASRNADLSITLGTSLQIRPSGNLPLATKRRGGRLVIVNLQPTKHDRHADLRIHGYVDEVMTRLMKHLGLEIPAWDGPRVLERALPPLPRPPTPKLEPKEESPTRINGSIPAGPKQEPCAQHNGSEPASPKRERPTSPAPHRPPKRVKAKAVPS

[5] = substrate: CC(=O)N[C@@H](CCC(=O)O)C(=O)N[C@@H](C)C(=O)N[C@@H](CC(C)C)C(=O)N1CCC[C@H]1C(=O)N[C@@H](CCCCN)C(=O)N[C@@H](CCCCNC(=O)CCCCCCCCCCNC(=O)c1ccccc1N)C(=O)N[C@@H](Cc1ccc(O)c([N+](=O)[O-])c1)C(=O)NCC(=O)NCC(N)=O; test: purified protein, by the assay type; settings: other: Sirt1 500 nM; fluorescence spectrophotometer (footnote a); 37.0 °C
Experimental: The reactions (total volume 100 μl) were measured in black low-binding 96-well microtiter plates (NUNC). Assay-buffer, 500 μM NAD^+ and 0.07–200 μM peptide substrate were pre-incubated at 37 °C for 5 min. The reaction was started by adding human sirtuin (0.01–0.5 μM). The signals were converted into product concentration via calibration lines and the resulting data were evaluated as described above (single fluorescence measurement). […] The reaction mixture for the calibration lines was prepared as described for the single fluorescence measurements.

B1: Sirt5 (Homo sapiens) (protein)
chain: SSSMADFRKFFAKAKHIVIISGAGVSAESGVPTFRGAGGYWRKWQAQDLATPLAFAHNPSRVWEFYHYRREVMGSKEPNAGHRAIAECETRLGKQGRRVVVITQNIDELHRKAGTKNLLEIHGSLFKTRCTSCGVVAENYKSPICPALSGKGAPEPGTQDASIPVEKLPRCEEAGCGGLLRPHVVWFGENLDPAILEEVDRELAHCDLCLVVGTSSVVYPAAMFAPQVAARGVPVAEFNTETTPATNRFRFHFQGPCGTTLPEALACHENETVS
notes: made in house
Km [1]: 16.5 ± 3.1 µM | kcat [1]: 5.7∙10^-3 ± 0.3∙10^-3 s^-1 | kcat/Km [1]: 3.48∙10^2 M^-1s^-1

B2: Sirt3 (Homo sapiens) (protein)
chain: MAFWGWRAAAALRLWGRVVERVEAGGGVGPFQACGCRLVLGGRDDVSAGLRGSHGARGEPLDPARPLQRPPRPEVPRAFRRQPRAAAPSFFFSSIKGGRRSISFSVGASSVVGSGGSSDKGKLSLQDVAELIRARACQRVVVMVGAGISTPSGIPDFRSPGSGLYSNLQQYDLPYPEAIFELPFFFHNPKPFFTLAKELYPGNYKPNVTHYFLRLLHDKGLLLRLYTQNIDGLERVSGIPASKLVEAHGTFASATCTVCQRPFPGEDIRADVMADRVPRCPVCTGVVKPDIVFFGEPLPQRFLLHVVDFPMADLLLILGTSLEVEPFASLTEAVRSSVPRLLINRDLVGPLAWHPRSRDVAQLGDVVHGVESLVELLGWTEEMRDLVQRETGKLDGPDK
notes: made in house
Km [2]: 2.4 ± 0.2 µM | kcat [2]: 1.2∙10^-2 ± 0.3∙10^-3 s^-1 | kcat/Km [2]: 5.15∙10^3 M^-1s^-1 | Km [3]: 1.6 ± 0.4 µM | kcat [3]: 4.7∙10^-2 ± 0.3∙10^-2 s^-1 | kcat/Km [3]: 2.95∙10^4 M^-1s^-1

KM of Sirt6-mediated deacylation, HPLC-based activity assay [4]: 6 µM
B3: myristoylated TNFα-derived peptide 1a (peptide)
peptide: Ac-EALPKK(Myristoyl)TGG-NH2
SMILES: CCCCCCCCCCCCCC(=O)NCCCC[C@H](NC(=O)[C@H](CCCCN)NC(=O)[C@@H]1CCCN1C(=O)[C@H](CC(C)C)NC(=O)[C@H](C)NC(=O)[C@H](CCC(=O)O)NC(C)=O)C(=O)N[C@H](C(=O)NCC(=O)NCC(N)=O)[C@@H](C)O

B4: Sirt1 (Homo sapiens) (protein)
chain: MADEAALALQPGGSPSAAGADREAASSPAGEPLRKRPRRDGPGLERSPGEPGGAAPEREVPAAARGCPGAAAAALWREAEAEAAAAGGEQEAQATAAAGEGDNGPGLQGPSREPPLADNLYDEDDDDEGEEEEEAAAAAIGYRDNLLFGDEIITNGFHSCESDEEDRASHASSSDWTPRPRIGPYTFVQQHLMIGTDPRTILKDLLPETIPPPELDDMTLWQIVINILSEPPKRKKRKDINTIEDAVKLLQECKKIIVLTGAGVSVSCGIPDFRSRDGIYARLAVDFPDLPDPQAMFDIEYFRKDPRPFFKFAKEIYPGQFQPSLCHKFIALSDKEGKLLRNYTQNIDTLEQVAGIQRIIQCHGSFATASCLICKYKVDCEAVRGDIFNQVVPRCPRCPADEPLAIMKPEIVFFGENLPEQFHRAMKYDKDEVDLLIVIGSSLKVRPVALIPSSIPHEVPQILINREPLPHLHFDVELLGDCDVIINELCHRLGGEYAKLCCNPVKLSEITEKPPRTQKELAYLSELPPTPLHVSEDSSSPERTSPPDSSVIVTLLDQAAKSNDDLDVSESKGCMEEKPQEVQTSRNVESIAEQMENPDLKNVGSSTGEKNERTSVAGTVRKCWPNRVAKEQISRRLDGNQYLFLPPNRYIFHGAEVYSDSEDDVLSSSSCGSNSDSGTCQSPSLEEPMEDESEIEEFYNGLEDEPDVPERAGGAGFGTDGDDQEAINEAISVKQEVTDMNYPSNKS
Km [5]: 0.7 ± 0.08 µM
